From patent US7109167 come the findings set out here.

No end group written: not given here. Oregon Green (5-isomer) = Oregon Green fluorescent label, 5-isomer

Experiment [1] concerns the target T1, NP-1/Fc (Neuropilin-1/Fc, R&D Systems).
T1 construct: Bought reagent; also called Npn-1
Nature of the experiment: fluorescence polarization competition against labeled BRU-326 on NP-1/Fc.

For experiment [2] the target is unchanged. Nature of the experiment: competition of 125I-VEGF165 binding to plate-coated NP-1/Fc. The protocol:
An assay buffer consisting of Hank's Balanced Salt Solution (HBSS), 25 mM HEPES, and 0.1% BSA, pH 7.4 was used, and for all experiments, Assay volume per well was 75 µl. Plates (Nunc MaxiSorp white opaque Microtiter plate [C-bottom, 437796]) were coated by incubating the wells with 75 µl of a solution containing 3 µlg/mL NP-1/Fc in D-PBS/0.1% NaAzide overnight at 4° C. after covering with sealing tape (Dynex, VWR Cat. No. 62402-931). The next day all wells, even control wells lacking NP-1/Fc, were blocked 2 hrs with blocking buffer (1% BSA in D-PBS with 0.05% v/v Tween-20) then washed 4× with PBST (D-PBS/0.05% v/v Tween-20) before starting the assay. All points were derived from triplicate wells, and for each set of replicates in NP-1/Fc-coated wells, a companion set in the absence of the receptor was included. […] After addition of the appropriate solutions, microtiter plates were incubated at 4° C. for 2 hours. Following the incubation, plates were hand-washed 5 times with D-PBS containing 0.05% Tween-20 and 0.1% BSA. The plates were blotted dry and 25 µl deionized water and 100 µl scintillation fluid (Optiphase SuperMix, Wallac) were added to each well.

The target is the same in experiment [3]. Put plainly: fluorescence polarization, labeled ligand (5-20 nM) titrated with NP-1/Fc, 37 °C. The protocol: FP values (mP) for each substrate was measured by titrating the ligand (5–20 nM) with receptor protein using a Jolley Research and Consulting FPM-1 fluorescence Polarization analyzer. In each of these experiments the observed polarization values were plotted against receptor concentration. The mP values for 100% binding of tracer labeled ligand to receptor protein was calculated using the software provided by the vendor.
Figure 3: FIG. 3: Binding of TKPPR (SEQ ID NO: 2) derivatives with NP-1/Fc by Fluorescence Polarization. The indicated Oregon Green-labeled derivatives were incubated with increasing concentrations of NP-1 and polarization was measured. […] Figure 4: FIG. 4: Binding of TKPPR (SEQ ID NO: 2) derivatives with KDR-Fc by FP.

T1 sequence (Q9QWJ9 22-855): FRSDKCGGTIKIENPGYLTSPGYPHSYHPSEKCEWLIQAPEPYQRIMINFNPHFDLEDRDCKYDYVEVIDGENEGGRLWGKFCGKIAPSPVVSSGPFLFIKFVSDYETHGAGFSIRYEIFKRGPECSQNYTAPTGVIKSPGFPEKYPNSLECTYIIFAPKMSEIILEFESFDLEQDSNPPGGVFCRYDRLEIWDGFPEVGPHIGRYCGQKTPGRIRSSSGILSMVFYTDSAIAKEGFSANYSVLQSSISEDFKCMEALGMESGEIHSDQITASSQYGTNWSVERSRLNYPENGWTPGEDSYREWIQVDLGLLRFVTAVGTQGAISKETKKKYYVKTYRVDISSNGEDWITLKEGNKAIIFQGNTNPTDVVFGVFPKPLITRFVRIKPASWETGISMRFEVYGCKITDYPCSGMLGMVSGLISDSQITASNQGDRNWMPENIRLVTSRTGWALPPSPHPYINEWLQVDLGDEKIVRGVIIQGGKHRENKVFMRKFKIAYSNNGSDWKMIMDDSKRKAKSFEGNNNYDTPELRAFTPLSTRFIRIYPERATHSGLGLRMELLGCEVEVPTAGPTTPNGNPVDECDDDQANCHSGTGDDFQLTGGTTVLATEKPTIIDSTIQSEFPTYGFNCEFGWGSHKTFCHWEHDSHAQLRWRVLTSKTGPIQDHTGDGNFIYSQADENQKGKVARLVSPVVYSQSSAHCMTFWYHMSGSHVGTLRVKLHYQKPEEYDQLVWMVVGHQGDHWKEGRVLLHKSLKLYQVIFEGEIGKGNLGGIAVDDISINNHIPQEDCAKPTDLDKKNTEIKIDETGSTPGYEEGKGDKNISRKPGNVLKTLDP

B1: VEGF165 (ligand, UniProt P15692-4 27-191, looked up)
chain: APMAEGGGQNHHEVVKFMDVYQRSYCHPIETLVDIFQEYPDEIEYIFKPSCVPLMRCGGCCNDEGLECVPTEESNITMQIMRIKPHQGQHIGEMSFLQHNKCECRPKKDRARQENPCGPCSERRKHLFVQDPQTCKCSCKNTDSRCKARQLELNERTCRCDKPRR
modifications: 125I label on the radioligand form
notes: Labelled and unlabelled forms and the different suppliers are kept as one molecule; also called unlabeled VEGF165
For orientation: IC50 means the concentration that gives 50% inhibition. In the case of B1, the IC50 in experiment [1] turned out to be 0.2 µM; in experiment [2], 0.0005 µM.

B2: TKPPR tetramer BRU-326, OG-(TKPPR)4 (peptide)
peptide: TKPPR-OH
modifications: not fully specified (N-terminus); printed as OG-(TKPPR)4; also: tetramer: four TKPPR chains joined via branched tetra-acid scaffold
notes: free C-terminal Arg on each arm; also called tetrameric TKPPR
The Kd is the equilibrium constant for the complex coming apart. Low readings indicate a tighter complex, high ones a looser complex. B2 displayed a Kd in experiment [3] of 0.025 to 0.05 µM. Also, the IC50 in experiment [2] turned out to be 0.13 µM.

For TKPPR-OH (also called BRU-95; TKPPR-OH) [TKPPR (L-threonyl-L-lysyl-L-prolyl-L-prolyl-L-arginine), free monomeric peptide], the values for the IC50 in experiment [1] and in experiment [2] were 80 µM and 43 µM, respectively.

B3: TKPPR dimer BRU-317, OG-(TKPPR)2 (peptide)
peptide: TKPPR
modifications: not fully specified (N-terminus); printed as OG-(TKPPR)2; also: dimer on branched scaffold with one Oregon Green label
Regarding B3, the IC50 in experiment [2] was 3 µM. That is a single-digit micromolar value.

{Oregon Green (5-isomer)}-GTKPPR-OH (also called OG-TKPPR; OG-TKPPR monomer) [BRU-239, Oregon Green (5-isomer)-GTKPPR-OH] came in with an IC50 in experiment [2] of 30 µM.
